Results reported in patent publication US20250243282A1.

What was measured:
[1] = molecular target: Recombinant human Gal3 (rhGal3) (TrueBinding, #QC200361) (human) (UniProt P17931); assay: cell-based or functional assay
[2] = molecular target: cynomolgus Gal3 (cynomolgus); assay: method not stated (FIG. 20)
For % inhibition of CD62L shedding in this document: test concentration or dose not given here.
For % inhibition of IL-6 secretion in this document: test concentration or dose not given here.
For % inhibition of TNFα secretion in this document: test concentration or dose not given here.

Chain of Recombinant human Gal3 (rhGal3) (TrueBinding, #QC200361) (human) (P17931 2-250 limits assumed): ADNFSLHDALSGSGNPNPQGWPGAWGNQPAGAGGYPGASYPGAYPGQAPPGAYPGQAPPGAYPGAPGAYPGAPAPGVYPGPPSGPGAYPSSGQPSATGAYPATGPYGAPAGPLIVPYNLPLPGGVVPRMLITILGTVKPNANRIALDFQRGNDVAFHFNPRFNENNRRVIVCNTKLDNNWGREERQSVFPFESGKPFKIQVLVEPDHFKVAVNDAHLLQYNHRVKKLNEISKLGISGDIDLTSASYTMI
Chain of cynomolgus Gal3 (cynomolgus) (chain, as listed by the source): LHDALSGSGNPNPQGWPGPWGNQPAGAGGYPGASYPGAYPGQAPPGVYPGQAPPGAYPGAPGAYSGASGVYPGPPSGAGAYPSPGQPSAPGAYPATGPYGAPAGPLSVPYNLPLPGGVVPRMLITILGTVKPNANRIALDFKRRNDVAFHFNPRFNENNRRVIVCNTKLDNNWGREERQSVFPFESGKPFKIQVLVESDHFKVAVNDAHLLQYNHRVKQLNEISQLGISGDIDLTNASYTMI

Binder | % inhibition of CD62L shedding [1] | % inhibition of IL-6 secretion [1] | % inhibition of TNFα secretion [1] | Kd [2]
F846C.1H5 (antibody, V domains shown) VH: EVQLLESGGGLVKPGGSLKLSCAASGFTFSSYAMSWVRQTPEKRLEWVASISSGGDTYYPDSVKGRFTISRDNARNILYLQMSSLRSEDTAMYYCASYGNSLFDYWGQGTTLTVSS VL: DVVMTQTPLSLPVSLGDQASISCRSSQSLVHNSGNTYLHWYLQRPGQSPNLLIYKVSNRFSGVPDRFSGSGSGTDFTLKISRVAAEDLGVYFCSQSTHVPPTFGGGTKLEIKR | 100% | -49.7% | -162% | –
14D11.2D2 (antibody, from another filing, V domains shown) VH: QVQLKESGPGLVAPSQSLSITCTISGFSLSSYGVHWVRQPPGKGLEWLVVIWSDGSTTYNSTLKSRLSISKDNSKSQVFLKMNSLQTDDTAMYYCARHISNYGTMDYWGQGTSVTVS VL: DIQMTQTTSSLSASLGDRVTISCRASQDIRNYLNWYQQKPDGSIKLLIYYTSRLHSGVPSRFSGSGSGTDYSLTIRNLEQEDIATYFCQHFNTLPPTFGGGTKLEIK | 86.2% | – | – | –

Continued, values first:

% inhibition of CD62L shedding [1] | % inhibition of IL-6 secretion [1] | % inhibition of TNFα secretion [1] | Kd [2] | Binder
34.4% | -71.4% | -181% | – | 847.14H4 (antibody, from a related filing, V domains shown) VH: QIQLVQSGPELTKPGETVKISCKASGYTFTDYGMNWVRQAPGETLKWMGWINTYTGEPTYADDFKGRFAFSLESSASTAYLQINNLKNEDVATYFCARYPMDYWGQGTSVTVSS VL: QAVVTQESALTTSPGETVTLTCRSSTGAVTTSNYANWVQEKPDHLFTGLIGGTNNRAPGVPARFSGSLIGDKAALTITGAQTEDEAIYFCALWYSNHLVFGGGTKLTVL
– | – | – | 5.1 nM | TB006 (antibody, human IgG4 S228P, kappa, V domains shown) VH: QVQLVQSGAEVKKPGASVKVSCKASGYSFTNYYMHWVRQAPGQRLEWMGWIYPGSGNTNYNEKFQGRVTITADTSASTAYMELSSLRSEDTAVYYCSTAPGGFDVWGQGTTVTVSS VL: DIVMTQTPLSLSVTPGQPASISCKSSKSLLHSDGITYLYWYLQKPGQSPQLLIYRMSNLASGVPDRFSGSGSGTDFTLKISRVEAEDVGVYYCAQMLEFPLTFGQGTKLEIKR
